# Laboratory results from US20150275238A1, “GENETICALLY ENGINEERED MICROBES AND METHODS FOR CONVERTING ORGANIC ACIDS TO ALCOHOLS” (UNIVERSITY OF GEORGIA RESEARCH FOUNDATION, INC., priority 2014, published 2015).
# Legend:
# [1] = substrate: CC=O; assay: AdhA alcohol dehydrogenase enzyme assay, Michaelis-Menten kinetics in cell extracts of P. furiosus strain A; format: biochemical, Thermoanaerobacter strain X514; conditions: other: recombinant AdhA in cell extracts of P. furiosus strain A, 50 mM Mops pH 7.5, 2 mM DTT, 70° C., nonlinear regression
# Procedure: (§1) The protein content was determined using a standard Bradford assay. Whole-cell extracts and S100 were kept anoxic at all times, and enzyme activity assays were performed under reducing conditions in anoxic 50 mM Mops (pH 7.5) plus 2 mM DTT at 70° C. […] Vmax and Km values of AdhA were calculated using nonlinear regression (nls function) in R (R Development Core Team, 2013, Available at www.R-project.org/).
# [2] = substrate: CCCC=O; assay: as above; format: biochemical, Thermoanaerobacter strain X514; conditions: other: recombinant AdhA in cell extracts of P. furiosus strain A, 50 mM Mops pH 7.5, 2 mM DTT, 70° C., nonlinear regression
# Procedure: as §1
protein,measurement,setting,value
T. X514 AdhA (Thermoanaerobacter ethanolicus) (protein) MWETKINPNKVFELRCKNTTYFGIGSIKKIKDILEVLKNKGINNVILVTGKGSYKASGAWDVVKPALETLGFKYSLYDKVGPNPTVDMIDEAAKIGRETGAKAVIGIGGGSPIDTAKSVAVLLEYTDKNARELYEQKFIPEKAAPIIAINLTHGTGTEVDRFAVATIPEKNYKPAIAYDCLYPMYAIDDPSLMTKLDKKQTIAVTIDALNHVTEAATTLVASPYSVLMAKETVRLIVRYLPAAVNDPENLVARYYLLYASALAGISFDNGLLHLTHALEHPLSAVKPEIAHGLGLGAILPAVVKAIYPSVAEVLAEVYSPIVPGLKGLPAEAEYVAKKVEEWLFKVGCTQKLSDFGFTKEDIPTLVRLAKTTPSLDGLLSNAPVEATEAVIAKIYEESF,Km,[1],63 µM
same,Km,[2],166 µM
